Where [1] appears, read: remark: other sources report otherwise.

Read-outs that look alike come from different tables or passages of the source.

LLVRYKCGK (modifications not checked) [HPV16 E1 277 …]: in the experiment with HLA-A*1101 (human), the binding affinity ratio (IC50 of standard peptide / IC50 of test peptide) (ratio to standard peptide) was determined as 0.0033. Also, the binding affinity ratio (IC50 of standard peptide / IC50 of test peptide) with HLA-A*0301 (human) stood at 0.0043.
Consider DLLCHEQL (modifications not checked) [HPV18 E7 peptide DLLCHEQL (position 24)], for which, in the experiment with HLA-A*0201 (human), the relative binding ratio (IC50 of standard peptide / IC50 of test peptide) was 0.0001.
MSFLTALKR (modifications not checked) [HPV16 E1 454 …]: in the experiment with HLA-A*1101 (human), the binding affinity ratio (IC50 of standard peptide / IC50 of test peptide) (ratio to standard peptide) was 0.098. Also, the binding affinity ratio (IC50 of standard peptide / IC50 of test peptide) in the experiment with HLA-A*0301 (human) stood at 0.087.
On to ILECVYCKQQL (modifications not checked) [HPV16 E6 34 …], for which the binding affinity ratio (IC50 of standard peptide / IC50 of test peptide) with HLA-A*0201 (human) was determined as 0.0004.
For the molecule FILYAHIQCL (modifications not checked) [HPV18 E1 peptide … (position 265, 10 amino acids)], the binding affinity ratio (IC50 of the standard peptide / IC50 of the test peptide) in the experiment with HLA-A*0201 (human) turned out to be 0.032.
Take SVAALYWYR (modifications not checked) [HPV18 E1 peptide … (position 322, 9 amino acids)]: the relative binding ratio (IC50 of standard peptide / IC50 of test peptide) with HLA-A*1101 (human) is 8.8.
Consider IILECVYCK (modifications not checked) [… (HPV16 E6, position 33, 9 amino acids)], for which the binding affinity ratio (IC50 of standard peptide / IC50 of test peptide) (ratio to standard peptide) with HLA-A*1101 (human) worked out at 0.019.
On to QLCTELQTT (modifications not checked) [HPV16 E6 peptide … (position 21, 9 amino acids)], for which the relative binding ratio (IC50 of standard peptide / IC50 of test peptide) with HLA-A*0201 (human) (setting [1]) is 0.0001.
For the molecule FVNSTSHFWL (modifications not checked) [HPV18 E1 peptide … (position 508, 10 amino acids)], the binding affinity ratio (IC50 of the standard peptide / IC50 of the test peptide) with HLA-A*0201 (human) amounted to 0.062.
As for CIDFYSRIR (modifications not checked) [HPV18 E6 68 …], the binding affinity ratio (IC50 of standard peptide / IC50 of test peptide) with HLA-A*1101 (human) worked out at 0.0001.
Take CVYCKTVL (modifications not checked) [HPV18 E6 32 CVYCKTVL]: the binding affinity ratio (IC50 of the standard peptide / IC50 of the test peptide) in the experiment with HLA-A*0201 (human) amounted to 0.0002.
On to DSVYGDTLEK (modifications not checked) [HPV18 E6 83 …], for which the binding affinity ratio (IC50 of standard peptide / IC50 of test peptide) in the experiment with HLA-A*1101 (human) is 0.0051.
As to DIRTLEDLL (modifications not checked) [HPV16 E7 peptide … (position 75, 9 amino acids)], the relative binding ratio (IC50 of standard peptide / IC50 of test peptide) with HLA-A*0201 (human) was determined as 0.0003.
As to LVRPFKSNK (modifications not checked) [HPV16 E1 222 …], in the experiment with HLA-A*1101 (human), the binding affinity ratio (IC50 of standard peptide / IC50 of test peptide) (ratio to standard peptide) was determined as 1.8. Also, the binding affinity ratio (IC50 of standard peptide / IC50 of test peptide) with HLA-A*0301 (human) is 0.07.
Turning to DIEITCVYCK (modifications not checked) [HPV18 E6 27 …], the binding affinity ratio (IC50 of standard peptide / IC50 of test peptide) with HLA-A*1101 (human) amounted to 0.0021.
On to TTLEQQYNK (modifications not checked) [… (HPV16 E6, position 93, 9 amino acids)], for which, in the experiment with HLA-A*1101 (human), the relative binding ratio (IC50 of standard peptide / IC50 of test peptide) is 0.29.
Turning to KLPDLCTEL (modifications not checked) [HPV18 E6 peptide … (position 13)], in the experiment with HLA-A*0201 (human) (setting [1]), the relative binding ratio (IC50 of standard peptide / IC50 of test peptide) was found to be 0.0035.
In the case of MMIEPPKLR (modifications not checked) [HPV16 E1 305 …], the binding affinity ratio (IC50 of standard peptide / IC50 of test peptide) (ratio to standard peptide) with HLA-A*1101 (human) was 0.0086. For the same molecule, the binding affinity ratio (IC50 of standard peptide / IC50 of test peptide) with HLA-A*0301 (human) was 0.001.
For ALDGNPISI (modifications not checked) [HPV18 E1 546 peptide …], the relative binding ratio (IC50 of standard peptide / IC50 of test peptide) (ratio to standard peptide) with HLA-A*0201 (human) worked out at 0.021.
As to NMSQWIRFR (modifications not checked) [HPV18 E1 428 …], the binding affinity ratio (IC50 of standard peptide / IC50 of test peptide) in the experiment with HLA-A*1101 (human) was determined as 0.0012.
Turning to FITFLGALK (modifications not checked) [HPV18 E1 460-468 peptide …], in the experiment with HLA-A*1101 (human), the relative binding ratio (IC50 of standard peptide / IC50 of test peptide) is 0.037.
FLRYQQIEFI (modifications not checked) [HPV18 E1 peptide … (position 452, 10 amino acids)]: the binding affinity ratio (IC50 of the standard peptide / IC50 of the test peptide) with HLA-A*0201 (human) was 0.0025.
Regarding EVFEFAFK (modifications not checked) [HPV18 E6 43 EVFEFAFK], the binding affinity ratio (IC50 of standard peptide / IC50 of test peptide) in the experiment with HLA-A*1101 (human) came to 0.018.
For FAFKDLFVV (modifications not checked) [HPV18 E6 peptide … (position 47)], the relative binding ratio (IC50 of standard peptide / IC50 of test peptide) with HLA-A*0201 (human) is 0.085.
Turning to QMNMSQWIR (modifications not checked) [HPV18 E1 426 …], the binding affinity ratio (IC50 of standard peptide / IC50 of test peptide) with HLA-A*1101 (human) was 0.0023.
Consider EVFEFAFKDL (modifications not checked) [HPV18 E6 peptide … (position 43)], for which the relative binding ratio (IC50 of standard peptide / IC50 of test peptide) with HLA-A*0201 (human) worked out at 0.0009.
For FLGALKSFL (modifications not checked) [HPV18 E1 peptide … (position 463, 9 amino acids)], the binding affinity ratio (IC50 of the standard peptide / IC50 of the test peptide) with HLA-A*0201 (human) came out at 0.045.
For the molecule VMGDTPEWI (modifications not checked) [HPV18 E1 339 peptide … (SEQ ID NO: 3614)], in the experiment with HLA-A*0201 (human), the relative binding ratio (IC50 of standard peptide / IC50 of test peptide) amounted to 0.007.
MLIQPPKLR (modifications not checked) [HPV18 E1 312 …]: the binding affinity ratio (IC50 of standard peptide / IC50 of test peptide) with HLA-A*1101 (human) is 0.0014.
With ELTEVFEFA (modifications not checked) [HPV18 E6 peptide … (position 40)], the relative binding ratio (IC50 of standard peptide / IC50 of test peptide) in the experiment with HLA-A*0201 (human) (setting [1]) came to 0.0012.
Regarding FAFRDLCIV (modifications not checked) [HPV16 E6 52 …], the binding affinity ratio (IC50 of standard peptide / IC50 of test peptide) with HLA-A*0201 (human) came to 0.051.
For the molecule NSNAAAFLK (modifications not checked) [HPV18 E1 393 …], the binding affinity ratio (IC50 of standard peptide / IC50 of test peptide) with HLA-A*1101 (human) was 0.37.
On to ALLRYKCGK (modifications not checked) [HPV18 E1 284-292 peptide …], for which, in the experiment with HLA-A*1101 (human), the relative binding ratio (IC50 of standard peptide / IC50 of test peptide) was determined as 0.14.
Turning to GTTLEQQYNK (modifications not checked) [… (HPV16 E6, position 92, 10 amino acids)], the binding affinity ratio (IC50 of standard peptide / IC50 of test peptide) (ratio to standard peptide) with HLA-A*1101 (human) came out at 0.07.
Consider ALYWYRTGI (modifications not checked) [HPV18 E1 325 peptide …], for which the relative binding ratio (IC50 of standard peptide / IC50 of test peptide) (ratio to standard peptide) with HLA-A*0201 (human) came out at 0.0032.
Consider LIRCLRCQK (modifications not checked) [HPV18 E6 102 …], for which, in the experiment with HLA-A*1101 (human), the binding affinity ratio (IC50 of standard peptide / IC50 of test peptide) is 0.0012.
Consider LIRCINCQK (modifications not checked) [… (HPV16 E6, position 107, 9 amino acids)], for which, in the experiment with HLA-A*1101 (human), the binding affinity ratio (IC50 of standard peptide / IC50 of test peptide) (ratio to standard peptide) was 0.0009.
As for GTLGIVCPI (modifications not checked) [HPV16 E7 peptide … (position 85, 9 amino acids)], the relative binding ratio (IC50 of standard peptide / IC50 of test peptide) with HLA-A*0201 (human) worked out at 0.021.
CATMCKHYR (modifications not checked) [HPV18 E1 412-420 peptide …]: the relative binding ratio (IC50 of standard peptide / IC50 of test peptide) with HLA-A*1101 (human) was determined as 0.011.
As to LLIRCINCQK (modifications not checked) [… (HPV16 E6, position 106, 10 amino acids)], the binding affinity ratio (IC50 of standard peptide / IC50 of test peptide) (ratio to standard peptide) with HLA-A*1101 (human) turned out to be 0.18.
Consider VVYRDSIPHA (modifications not checked) [HPV18 E6 peptide … (position 54)], for which the relative binding ratio (IC50 of standard peptide / IC50 of test peptide) in the experiment with HLA-A*0201 (human) worked out at 0.0003.
As to EITCVYCKT (modifications not checked), in the experiment with HLA-A*0201 (human) (setting [1]), the binding affinity ratio (IC50 of the standard peptide / IC50 of the test peptide) was 0.0001.
Regarding CVYCKTVLEL (modifications not checked) [HPV18 E6 32 …], in the experiment with HLA-A*0201 (human), the binding affinity ratio (IC50 of the standard peptide / IC50 of the test peptide) is 0.0001.
As for KFYSKISEYR (modifications not checked) [… (HPV16 E6, position 75, 10 amino acids)], the binding affinity ratio (IC50 of standard peptide / IC50 of test peptide) (ratio to standard peptide) in the experiment with HLA-A*1101 (human) is 0.0002.
As for KDCATMCRH (modifications not checked), the relative binding ratio (IC50 of standard peptide / IC50 of test peptide) with HLA-A*1101 (human) stood at 0.0002. Further, the binding affinity ratio (IC50 of standard peptide / IC50 of test peptide) (ratio to standard peptide) with HLA-A*0301 (human) amounted to 0.0011.
As to HDIILECVY (modifications not checked) [… (HPV16 E6, position 31, 9 amino acids)], in the experiment with HLA-A*1101 (human), the binding affinity ratio (IC50 of standard peptide / IC50 of test peptide) (ratio to standard peptide) was 0.0001.
Take PLNPAEKLRHL (modifications not checked) [HPV18 E6 peptide … (position 111)]: in the experiment with HLA-A*0201 (human), the relative binding ratio (IC50 of standard peptide / IC50 of test peptide) was found to be 0.0001.
On to QLCTELQTTI (modifications not checked) [HPV16 E6 peptide … (position 21, 10 amino acids)], for which, in the experiment with HLA-A*0201 (human), the relative binding ratio (IC50 of standard peptide / IC50 of test peptide) was found to be 0.0012.
As to KFYSKISEY (modifications not checked) [… (HPV16 E6, position 75, 9 amino acids)], in the experiment with HLA-A*1101 (human) (setting [1]), the binding affinity ratio (IC50 of standard peptide / IC50 of test peptide) (ratio to standard peptide) was 0.0002.
Take KDCATMCRHY (modifications not checked): the relative binding ratio (IC50 of standard peptide / IC50 of test peptide) with HLA-A*1101 (human) was 0.0002. Also, the binding affinity ratio (IC50 of standard peptide / IC50 of test peptide) (ratio to standard peptide) with HLA-A*0301 (human) turned out to be 0.0005.
In the case of GLYNLLIRCL (modifications not checked) [HPV18 E6 peptide … (position 97)], in the experiment with HLA-A*0201 (human), the relative binding ratio (IC50 of standard peptide / IC50 of test peptide) turned out to be 0.0036.
As to LVRNFKSDK (modifications not checked) [HPV18 E1 229 …], the binding affinity ratio (IC50 of standard peptide / IC50 of test peptide) with HLA-A*1101 (human) is 0.0002.
On to GVSFSELVR (modifications not checked) [HPV16 E1 216 …], for which, in the experiment with HLA-A*1101 (human), the relative binding ratio (IC50 of standard peptide / IC50 of test peptide) stood at 0.018. In addition, the binding affinity ratio (IC50 of standard peptide / IC50 of test peptide) (ratio to standard peptide) in the experiment with HLA-A*0301 (human) is 0.0011.
Turning to LLIRCLRCQK (modifications not checked) [HPV18 E6 101 …], the binding affinity ratio (IC50 of standard peptide / IC50 of test peptide) with HLA-A*1101 (human) worked out at 0.12.
Consider EITCVYCKTV (modifications not checked), for which the binding affinity ratio (IC50 of the standard peptide / IC50 of the test peptide) with HLA-A*0201 (human) is 0.0002.
In the case of TLEQQYNKPL (modifications not checked) [HPV16 E6 peptide … (position 94, 10 amino acids)], the relative binding ratio (IC50 of standard peptide / IC50 of test peptide) with HLA-A*0201 (human) turned out to be 0.0001.

These data come from patent US7026443.
